Source: patent US20240101645A1 (HENRY M JACKSON FOUNDATION FOR THE ADVANCEMENT OF MILITARY …, published 2024)

How the values were obtained:
[1] = biological target: T1, HCoV-HKU1 spike antigens (bead panel) (HCoV-HKU1, UniProt Q5MQD0 13-1300); assay: multiplex bead assay
T1 sequence: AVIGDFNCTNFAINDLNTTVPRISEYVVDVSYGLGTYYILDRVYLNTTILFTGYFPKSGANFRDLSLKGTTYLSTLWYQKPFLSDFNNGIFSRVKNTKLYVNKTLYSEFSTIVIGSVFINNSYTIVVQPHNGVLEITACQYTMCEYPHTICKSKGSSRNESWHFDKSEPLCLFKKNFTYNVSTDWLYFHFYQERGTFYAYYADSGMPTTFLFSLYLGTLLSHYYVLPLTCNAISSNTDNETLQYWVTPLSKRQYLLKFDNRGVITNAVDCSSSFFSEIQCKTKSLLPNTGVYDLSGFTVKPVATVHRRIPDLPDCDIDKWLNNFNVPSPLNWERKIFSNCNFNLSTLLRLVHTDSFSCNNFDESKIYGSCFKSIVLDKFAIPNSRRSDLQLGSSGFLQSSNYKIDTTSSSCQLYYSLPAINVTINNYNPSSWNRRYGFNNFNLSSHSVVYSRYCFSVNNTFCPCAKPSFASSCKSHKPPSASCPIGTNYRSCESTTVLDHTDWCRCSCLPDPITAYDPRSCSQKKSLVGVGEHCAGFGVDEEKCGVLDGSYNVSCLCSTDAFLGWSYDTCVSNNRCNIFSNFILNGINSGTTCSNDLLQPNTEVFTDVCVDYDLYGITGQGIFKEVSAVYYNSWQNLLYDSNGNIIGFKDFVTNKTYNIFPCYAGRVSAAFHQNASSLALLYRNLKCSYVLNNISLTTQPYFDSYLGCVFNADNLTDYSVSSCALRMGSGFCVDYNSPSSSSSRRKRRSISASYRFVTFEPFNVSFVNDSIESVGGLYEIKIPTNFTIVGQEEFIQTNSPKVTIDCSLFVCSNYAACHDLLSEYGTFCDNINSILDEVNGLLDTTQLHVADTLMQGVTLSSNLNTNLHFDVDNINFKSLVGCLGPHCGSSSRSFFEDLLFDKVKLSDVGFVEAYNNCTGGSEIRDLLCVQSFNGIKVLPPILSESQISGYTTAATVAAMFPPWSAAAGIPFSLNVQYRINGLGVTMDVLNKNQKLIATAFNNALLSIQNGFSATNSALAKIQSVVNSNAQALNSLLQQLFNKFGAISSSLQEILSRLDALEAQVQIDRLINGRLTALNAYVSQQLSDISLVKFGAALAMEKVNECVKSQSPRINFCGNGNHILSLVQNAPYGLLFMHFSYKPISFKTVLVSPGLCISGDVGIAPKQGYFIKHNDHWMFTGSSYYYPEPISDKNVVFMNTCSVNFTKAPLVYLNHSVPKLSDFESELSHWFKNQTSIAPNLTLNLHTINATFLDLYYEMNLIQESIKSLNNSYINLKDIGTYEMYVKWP

[2] = biological target: T2, HCoV-NL63 spike antigens (bead panel) (HCoV-NL63, UniProt Q6Q1S2 19-1296); assay: multiplex bead assay
T2 sequence: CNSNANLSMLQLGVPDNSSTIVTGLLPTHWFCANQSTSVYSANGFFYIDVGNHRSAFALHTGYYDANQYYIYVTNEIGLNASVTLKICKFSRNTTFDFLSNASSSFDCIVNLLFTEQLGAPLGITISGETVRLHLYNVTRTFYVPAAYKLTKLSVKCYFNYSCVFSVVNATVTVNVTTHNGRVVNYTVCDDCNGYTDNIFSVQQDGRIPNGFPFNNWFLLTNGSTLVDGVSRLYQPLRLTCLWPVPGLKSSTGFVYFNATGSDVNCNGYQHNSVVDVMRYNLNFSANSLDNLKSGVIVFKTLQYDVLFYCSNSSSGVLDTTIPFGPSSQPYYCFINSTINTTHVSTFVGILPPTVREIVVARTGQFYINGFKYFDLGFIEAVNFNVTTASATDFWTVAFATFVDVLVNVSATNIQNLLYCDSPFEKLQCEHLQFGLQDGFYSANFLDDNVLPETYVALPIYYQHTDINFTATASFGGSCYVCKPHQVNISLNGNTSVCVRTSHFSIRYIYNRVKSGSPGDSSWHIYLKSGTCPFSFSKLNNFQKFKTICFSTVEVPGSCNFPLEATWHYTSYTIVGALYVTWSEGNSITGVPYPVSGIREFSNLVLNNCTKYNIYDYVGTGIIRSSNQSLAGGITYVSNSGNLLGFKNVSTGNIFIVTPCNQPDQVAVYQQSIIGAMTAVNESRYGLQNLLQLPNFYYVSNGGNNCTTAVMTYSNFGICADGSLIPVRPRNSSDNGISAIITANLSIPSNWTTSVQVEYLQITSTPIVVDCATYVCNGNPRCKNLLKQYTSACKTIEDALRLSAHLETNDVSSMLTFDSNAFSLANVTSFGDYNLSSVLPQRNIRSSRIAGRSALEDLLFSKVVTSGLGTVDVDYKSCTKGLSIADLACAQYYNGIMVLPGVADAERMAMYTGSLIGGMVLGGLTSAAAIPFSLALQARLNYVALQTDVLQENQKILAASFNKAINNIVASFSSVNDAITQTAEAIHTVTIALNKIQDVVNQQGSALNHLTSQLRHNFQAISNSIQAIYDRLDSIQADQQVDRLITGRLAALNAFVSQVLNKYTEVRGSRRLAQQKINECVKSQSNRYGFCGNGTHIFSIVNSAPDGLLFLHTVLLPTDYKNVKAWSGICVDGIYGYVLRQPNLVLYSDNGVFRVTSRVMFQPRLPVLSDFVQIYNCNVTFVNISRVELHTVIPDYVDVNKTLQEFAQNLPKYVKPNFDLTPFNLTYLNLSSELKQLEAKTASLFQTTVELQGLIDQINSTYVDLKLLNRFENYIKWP

B1: COV_2057 (antibody, V domains shown)
VH: EVQLVQSGAEVKKPGESLKISCKGSGYSFISYWIAWVRQMPGKGLEWMGIIYPGDSDTTYSPSFQGQVTISADKSISTAYLQWSSLKASDTAIYYCARLLYYSDSSPLDSWGQGTLVTVSS
VL: DIQMTQSPSSLSASVGDRVTITCRASQSISTYLNWYQQKPGKAPNLLIYAASSLQSGVPSRFSGSGSGTDFTLTISSLQPEDFATYYCQQSHSTPRTFGPGTKVDIK
notes: human IgG1
- binding result [1]: no binding
- binding result [2]: no binding

B2: COV_2100 (antibody, V domains shown)
VH: EVQLVESGGGLVQPGGSLRLSCAASGFTFSSYDMYWVRQATGKGLEWVSAIGTAGDTYYPGSVKGRFTISRENAKNSLYLRMNSLRAGDTAVYFCARADKNTAMFFDYWGQGTLVTVSS
VL: DIQMTQSPSSLSASVGDRVTITCRASQNINNFLHWYQQKPGNAPKLLIYAASTLQSGVPSRFSGSGSGTDFTLTISSLQPEDFATYYCQQSYSTPGGTFGGGTKVEIK
notes: human IgG1
- binding result [1]: no binding
- binding result [2]: no binding

B3: COV_2196 (antibody, V domains shown)
VH: QVQLVQSGAEVKKPGASVKVSCKVSGYTLIELSMHWVRQAPGKGLEWMGGFDPEDAKTIYAQKFQGRVTMTEDTSTDTAYMELSSLTFEDTAVYYCATTPAFMAAAGDFDYWGQGTLVTVSS
VL: QPVLTQPSSVSVSPGQTATITCSGDVLAKKYARWFQQKPGQAPMLVIYKDTERPSGIPERFSGSSSGTTVTLTINGAQVEDEADYYCYSAAAWVFGGGTKLTVL
notes: human IgG1
- binding result [1]: no binding
- binding result [2]: no binding

B4: COV_2027 (antibody, V domains shown)
VH: EVQLVESGGGLIQPGGSLRLSCAASGFSVSTNYMSWVRQAPGKGLEWVSIIYSGGGTYYADSVKGRFTISRDTSENTLYLQMNSLRAEDTAVYYCASFLVGATGQPWYWGQGTLVTVSS
VL: not shown
notes: human IgG1
- binding result [1]: no binding
- binding result [2]: no binding

B5: COV_2193 (antibody, V domains shown)
VH: QVQLVQSGAEVKKPGASVKVSCKVSGYTLTDLSMHWVRQTPGKGLEWMGGFDAEDGETIYAQNFQGRVTMTEDTSIDVAYMELSSLRSEDTAVYYCATGSVGPDYWGQGTLVTVSS
VL: SSELTQDPAVSVALGQTVRITCQGDSLRSYYASWFQQKPGQAPVLVIYLKNDRPSGIPDRFSGSSSGNTASLTITGAQAEDEADYYCNSRDSSGNHQVFGGGTKLTVL
notes: human IgG1
- binding result [1]: no binding
- binding result [2]: no binding

B6: COV_2054 (antibody, V domains shown)
VH: EVQLVESGGGVLQPGRSLRLSCAASGFTFNNYALHWVRQAPGKGLEWVAVISYDGSSKYYADSVRGRLTISRDNSRNTLYLQMNSLRPEDTAIYYCARDGDGLWLGESFYFDDWGQGTLVTVSS
VL: DIQMTQSPSTLSASVGDRVIITCRASQSISSWLAWYQQKPGKAPKLLIYEASTLQSGVPSRFSGSGSGTEFTLTISSLQPDDSATYYCQQYNSYPVHFSQGTKLEIK
notes: human IgG1
- binding result [1]: no binding
- binding result [2]: no binding

B7: COV_3088 (antibody, V domains shown)
VH: EVQLVESGGGLVQPGGSLRLSCAASGFTFSSYDMHWVRQATGKGLEWVSAIGTAGDTYYPGSVKGRFTISRENAKNSLYLQMNSLRAGDTAVYYCARGSGWPPFFDYWGQGTLVTVSS
VL: SYELTQPPSVSVAPGKTARITCGGNNIGSKSVHWYQQKPGQAPVLVIYYDSDRPSGIPERFSGSNSGNTATLTISRVEAGDEADYYCQVWDSSSDHHWVFGGGTKLTVL
notes: human IgG1
- binding result [1]: no binding
- binding result [2]: no binding

B8: COV_1050 (antibody, V domains shown)
VH: QVQLVESGGGVVQPGRSLRLSCAASRFTFSSYAMHWVRQAPGKGLEWVAVISFDGSNKYYADSVKGRFTIFRDNSKNTLSLQMNSLRTEDTAMYYCASPAGYYESLWGQGTLVTVSS
VL: SYELTQPPSVSVSPGQTARVTCSGDALSKQYGFWYQQKPGQAPTLVIYKDTERPSGIPERFSGSGSGTTVTLTISGVQAEDEADYYCQSTDNSGRWVFGGGTKLTVLG
notes: human IgG1
- binding result [1]: no binding
- binding result [2]: no binding

B9: COV_2028 (antibody, V domains shown)
VH: QVQLQESGPGLVKPSGTLSLTCVVSGGSISSSNWWSWVRQPPGKGLEWIGEIYHSGSTNYNPSLKSRVTISVDKSKNQFSLRLTSVTAADTAVYYCARGWNYDYWGQGTLVTVSS
VL: QSALTQPASVSGSPGQSITIACTGTSSDVGSYNLVSWYQQHPGKAPKLMIYEVSKRPSGLSNRFSGSKSGNTASLTISGLQAEDEADYYCYSYAGSSTWVFGGGTKLTVL
notes: human IgG1
- binding result [1]: no binding
- binding result [2]: no binding

B10: COV_2134 (antibody, V domains shown)
VH: EVQLVESGGGVVQPGRSLRLSCAASGFIFSSYGMYWVRQAPGKGLEWVAVIWYDGSNKYYADSVKGRFTISRDNSKNTLYLQMNSLRAEDTAVYYCARDLSSSSGWDDYYYYYGMDVWGQGTTVTVSS
VL: not shown
notes: human IgG1
- binding result [1]: no binding
- binding result [2]: no binding

B11: COV_2037 (antibody, V domains shown)
VH: QVQLVQSGAEVKKPGASVKVSCKVSGYTLTELSMHWVRQAPGKGLEWMGGFDPEDAETIYAQKFQGRVTMTEDTSTDTAYMELSSLRSEDTAVYYCATAGAITGTPTNYSYYYGMDFWGQGTTVTVSS
VL: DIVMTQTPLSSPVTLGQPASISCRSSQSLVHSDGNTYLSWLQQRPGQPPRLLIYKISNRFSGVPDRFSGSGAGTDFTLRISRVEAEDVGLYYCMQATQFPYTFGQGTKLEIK
notes: human IgG1
- binding result [1]: no binding
- binding result [2]: no binding

B12: COV_2123 (antibody, V domains shown)
VH: EVQLVESGGGVVQPGRSLRLSCAASGFTFSSYAMHWVRQAPGKGLEWVAVLSYDGSNKYNADSVKGRFTISRDNSKNTLYLQMNSLRVEDTAMYYCARDGVSVTMVRGVIGPLCDYWGQGTLVTVSS
VL: not shown
notes: human IgG1
- binding result [1]: no binding
- binding result [2]: no binding

B13: COV_2103 (antibody, V domains shown)
VH: EVQLVESGGGVVQPGRSLRLSCGASGFTFSSYGIHWVRQAPGKGLDWVAVIWHDGSQKYYGDSVKGRFTISRDNSKNTLYLQMNRLRAEDTAVYYCARDSGDDYDSSGYPIGNAFDLWGQGTMVTVSS
VL: DIQMTQSPSTLSASVGDRVTITCRASQFINSWLAWYQQKPGKAPKLLIYKASSLETGVPSRFSGSGSGTEFTLTISSLQPDDFATYYCQQYNTYSFTFGPGTKVDIK
notes: human IgG1
- binding result [1]: no binding
- binding result [2]: no binding
